From patent US20190056396A1 (GLENMARK PHARMACEUTICALS S A, published 2019)

Tests used:
Protein A [1] = target: T1, Protein A (UniProt P38507 37-477); assay: flow cytometry, FITC-labelled Protein A on CHO-S cells transfected with pHC-M1M2 + pLC
T1 construct: also called Protein A biosensors

Protein A [2] = target: T1, Protein A; assay: Octet QK, Protein A biosensors, supernatant day 6

Row | Binder | binding result (Protein A [1]) | binding result (Protein A [2])
1 | heavy chain-light chain homodimer of the BEAT antibody displayed on the cell membrane of CHO-S cells via the M1M2 transmembrane region (pHC-M1M2 + pLC) (antibody, also called Fab-DIM; Fab homodimer) heavy: not shown light: QIVLTQSPAIMSASPGEKVTMTCSASSSVSYMNWYQQKSGTSPKRWIYDTSKLASGVPAHFRGSGSGTSYSLTISGMEAEDAATYYCQQWSSNPFTFGSGTKLEINRTVAAPSVFIFPPSDEQLKSGTASVVCLLNNFYPREAKVQWKVDNALQSGNSQESVTEQDSKDSTYSLSSTLTLSKADYEKHKVYACEVTHQGLSSPVTKSFNRGEC | no binding | 
2 | secreted heavy chain-light chain homodimer of the BEAT antibody (antibody, also called Fab-DIM; Fab homodimer) heavy: not shown light: QIVLTQSPAIMSASPGEKVTMTCSASSSVSYMNWYQQKSGTSPKRWIYDTSKLASGVPAHFRGSGSGTSYSLTISGMEAEDAATYYCQQWSSNPFTFGSGTKLEINRTVAAPSVFIFPPSDEQLKSGTASVVCLLNNFYPREAKVQWKVDNALQSGNSQESVTEQDSKDSTYSLSSTLTLSKADYEKHKVYACEVTHQGLSSPVTKSFNRGEC |  | no binding
